Earlier results in article PMC3577484.
pKd: −log10 of the molar value. Where “and” joins values, the source holds several entries; their conditions need not be identical. Identical values can stand only once.

Target: insulin receptor (Xenopus laevis) (UniProt Q9PVZ4)
Assay: Scatchard radioligand binding

Sequence of insulin (F8WCM5 25-54): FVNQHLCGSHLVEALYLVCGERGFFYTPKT
Sequence of insulin (P01308 90-110, further chain): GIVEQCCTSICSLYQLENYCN
Sequence of UniProt Q9PVZ4 (Q9PVZ4 759-1362): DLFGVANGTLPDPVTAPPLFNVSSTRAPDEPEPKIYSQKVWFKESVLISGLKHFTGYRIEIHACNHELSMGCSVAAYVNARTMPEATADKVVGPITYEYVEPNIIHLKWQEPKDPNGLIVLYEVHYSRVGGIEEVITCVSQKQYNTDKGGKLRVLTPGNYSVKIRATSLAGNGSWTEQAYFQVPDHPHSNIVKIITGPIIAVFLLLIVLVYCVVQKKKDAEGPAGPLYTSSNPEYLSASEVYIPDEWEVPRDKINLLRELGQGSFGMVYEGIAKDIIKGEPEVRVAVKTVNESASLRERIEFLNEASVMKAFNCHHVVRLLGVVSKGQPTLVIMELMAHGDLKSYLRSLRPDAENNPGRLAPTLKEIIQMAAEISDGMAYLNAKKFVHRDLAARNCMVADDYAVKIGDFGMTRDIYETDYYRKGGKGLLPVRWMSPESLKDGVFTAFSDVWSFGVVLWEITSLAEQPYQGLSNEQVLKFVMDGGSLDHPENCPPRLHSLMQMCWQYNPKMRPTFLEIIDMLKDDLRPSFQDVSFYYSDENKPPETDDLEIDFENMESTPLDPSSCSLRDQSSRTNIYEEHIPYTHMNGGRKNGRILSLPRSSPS

insulin (from UniProt P01308)
pKd: 9.05 and 8.27
